Results on three molecules are retold here after US20170283509A1 (University of Texas, published 2017).

The chains are these.
B2: Anterior Gradient 2 (AGR2), endogenous protein from PDAC cell lysate (SU86.86) (ligand)
chain: RDTTVKPGAKKDTKDSRPKLPQTLSRGWGDQLIWTQTYEEALYKSKTSNKPLMIIHHLDECPHSQALKKVFAENKEIQKLAEQFVLLNLVYETTDKHLSPDGQYVPRIMFVDPSLTVRADITGRYSNRLYAYEPADTALLLDNMKKALKLLKTEL
notes: Endogenous AGR2 of human pancreatic cancer cell lysates, used in IP and western blot; also called hAG-2; Gob-4

Test [1] addresses T1, human recombinant AGR2 (rAGR2) (ab64013, AbCam) (human, UniProt O95994 21-175, limits assumed).
T1 construct: also called extracellular AGR2
T1 sequence: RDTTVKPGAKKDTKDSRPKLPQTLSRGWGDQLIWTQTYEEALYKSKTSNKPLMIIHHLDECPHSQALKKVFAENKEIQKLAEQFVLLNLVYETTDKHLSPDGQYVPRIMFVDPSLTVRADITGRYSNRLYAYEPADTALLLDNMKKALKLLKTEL
Briefly: western blot (FIG. 5A). Background: In western blotting, separated proteins are transferred to a membrane and probed.

The target of test [2] is B2. In words: western blot (FIG. 5A).
Test [3] concerns the target T2, AGR2 antigenic peptide (CIHHLDESPHSQALKKVFAENKEIQKLAEQ; SEQ ID NO: 3) (human).
T2 peptide: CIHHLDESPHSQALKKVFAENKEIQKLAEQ
Briefly: ELISA, antigenic peptide (0.5 ug) coated, probed with purified Ab (FIG. 11C). On the procedure:
(§1) FIGS. 11A-D. Monoclonal antibodies developed bind respectively to AGR2 and C4.4A proteins and blocked their functions. From the endogenous lysate (SU86.86/Panc-1), AGR2 (18 kD) and C4.4A (50 kD) were identified by a panel of mAbs. […] Extra bands identified with the endogenous protein were re-confirmed with the recombinant protein. For apoptosis studies, AsPC-1 cells were treated without or with Gem (0.5 μM) and rAGR2 (100 nM) and with purified (A) AGR2 and (B) C4.4A Abs (1 μM). Commercially available Abs served as control. […] Horizontal line represents median apoptotic value. Data shown are mean±SE for 3 experiments (*p<0.05). (C,D) Binding assays were conducted with purified (C) AGR2 and (D) C4.4A Abs as selected from the apoptosis assay as having high blocking efficiency. ELISA assays were conducted by coating antigenic peptide (0.5 μg) and probed with respective purified Abs. Data shown are mean±SE for 3 experiments (*p <0.05). Based on high specificity and binding, clone 28B for AGR2 and 1A for C4.4A were selected. Purified Abs were also run on 4-20% gradient gel to check for the presence of heavy (50 kD) and light chains (25 kD).
A general note: An ELISA detects its analyte on a solid surface through an enzyme-linked reagent.

A further test deals with T3, dystroglycan-1 (DAG-1) (UniProt Q14118 30-895, limits assumed).
T3 construct: Endogenous protein of a PDAC cell lysate; also called Dystoglycan-1
T3 sequence (looked up): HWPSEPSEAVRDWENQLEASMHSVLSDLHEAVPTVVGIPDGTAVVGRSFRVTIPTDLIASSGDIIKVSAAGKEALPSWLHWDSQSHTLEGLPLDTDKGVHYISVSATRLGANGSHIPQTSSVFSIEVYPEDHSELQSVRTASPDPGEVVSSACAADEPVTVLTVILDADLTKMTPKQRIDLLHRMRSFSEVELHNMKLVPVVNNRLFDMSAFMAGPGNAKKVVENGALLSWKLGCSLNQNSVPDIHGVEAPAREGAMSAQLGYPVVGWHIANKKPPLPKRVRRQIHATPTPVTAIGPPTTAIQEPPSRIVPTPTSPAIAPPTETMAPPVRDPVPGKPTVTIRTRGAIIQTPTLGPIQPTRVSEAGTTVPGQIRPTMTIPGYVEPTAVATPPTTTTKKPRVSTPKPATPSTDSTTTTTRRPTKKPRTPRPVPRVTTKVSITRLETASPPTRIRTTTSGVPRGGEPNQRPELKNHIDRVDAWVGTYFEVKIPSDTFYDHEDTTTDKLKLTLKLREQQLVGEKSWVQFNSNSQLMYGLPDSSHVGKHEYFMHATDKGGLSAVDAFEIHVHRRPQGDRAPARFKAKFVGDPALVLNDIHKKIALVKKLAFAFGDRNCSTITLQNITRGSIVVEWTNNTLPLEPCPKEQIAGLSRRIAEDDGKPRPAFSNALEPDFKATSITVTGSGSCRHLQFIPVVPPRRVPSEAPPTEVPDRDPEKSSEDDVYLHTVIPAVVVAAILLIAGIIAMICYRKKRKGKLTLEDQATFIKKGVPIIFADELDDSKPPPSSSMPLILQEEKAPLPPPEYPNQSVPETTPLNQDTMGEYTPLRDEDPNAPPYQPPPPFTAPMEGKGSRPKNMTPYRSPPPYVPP
Briefly: co-immunoprecipitation from SU86.86 lysate with commercial anti-AGR2 antibody, western blot.

The target in test [4] is T4, C4.4A (LYPD3), endogenous protein of PDAC cells (human, UniProt O95274 31-326).
T4 construct: On PDAC cells in the functional assays
T4 sequence: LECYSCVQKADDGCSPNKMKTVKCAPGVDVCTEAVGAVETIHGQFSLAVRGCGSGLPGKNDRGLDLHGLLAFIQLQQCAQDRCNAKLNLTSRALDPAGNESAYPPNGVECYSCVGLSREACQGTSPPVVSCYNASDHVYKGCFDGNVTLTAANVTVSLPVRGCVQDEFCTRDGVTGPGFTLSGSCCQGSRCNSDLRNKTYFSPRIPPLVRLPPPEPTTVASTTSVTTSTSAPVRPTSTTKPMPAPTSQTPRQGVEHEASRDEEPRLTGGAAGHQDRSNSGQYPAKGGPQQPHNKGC
The test is described as above.

Test [5] concerns the target T5, C4.4A antigenic peptide (CPVRPTSTTKPMPAPTSQTPRQGVEHEASRDEEPRL; SEQ ID NO: 4) (human).
T5 peptide: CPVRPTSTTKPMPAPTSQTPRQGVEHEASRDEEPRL
In words: ELISA, antigenic peptide (0.5 ug) coated, probed with purified Ab (FIG. 11D). On the procedure:
as §1

Test [6] deals with T4, C4.4A (LYPD3), endogenous protein of …. In words: western blot (FIG. 5A).

B1: 163-28B-1 monoclonal antibody (antibody, V domains shown)
VH: QIQLVQSGPELKKPGETVKISCKASGYTFTNYGMNWVKQAPGKGLKWMGWINTDTGKPTYTEEFKGRFAFSLATSASTAYLQINNLRNEDTATYFCGRVTADSMDYWGQGTSVTVSS
VL: DVVMTQTPLSLPVSLGDQASISCRSSQSLVHSNGNIYLHWFLQKPGQSPKLLIYKVSNRFSGVPDRFSGSGSGTDFTLKISRVEAEDLGVYFCSQSTHVPLTFGAGTKLELK
notes: also called AGR2 mAb; clone 28B
For B1, the binding result in test [1], in test [2] and in test [3] was “binds” in each case.

Regarding B2, the figures for the binding result (with dystroglycan-1 (DAG-1); in test [4]) were “no binding” and “binds”, respectively.

B3: 162-1A-1 monoclonal antibody (antibody, V domains shown)
VH: EVMLVESGGGLVKPGGSLKLSCAASGFTFSSYTMSWVRQTPEKRLEWVASISSGGGNTYYADSVKGRFTMSRDNAKNNLYLQMSSLRSEDTALYYCARSYYYGISYDTYWGQGTLVTVSA
VL: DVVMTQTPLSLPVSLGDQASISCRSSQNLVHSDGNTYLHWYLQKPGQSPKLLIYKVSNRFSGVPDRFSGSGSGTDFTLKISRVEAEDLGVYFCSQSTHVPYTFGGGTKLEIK
notes: also called C4.4A mAb; clone 1A
Regarding B3, the binding result in test [5] and in test [6] was “binds” throughout.
